Substrate in this series: Nc1ncnc2c1ncn2[C@@H]1O[C@H](COP(=O)(O)OP(=O)(O)OP(=O)(O)O)[C@@H](O)[C@H]1O
The experiment in a line: malachite green ATPase assay. The series is classed as biochemical, Arabidopsis thaliana. The following applies: ATP 0-8 mM, 10 mM MgCl2, 25 °C. An excerpt: malachite green ATPase assay on AtABCG1

The mark [1] stands for this setting: Fos-Choline-14, EQ/HA background subtracted.
Where [2] appears, read: Fos-Choline-14, hydrolysis-deficient mutant used as background control.

Consider two proteins from article PMC6684660, “ABCG1 contributes to suberin formation in Arabidopsis thaliana roots” (Scientific Reports, 2019).

B1: AtABCG1 (Arabidopsis thaliana) (protein)
chain: MARIVAANDDDSMELNTISSIHDSTLGQLLKNVSDVRKMAIGDETPVHESLNQDYNDGYMRTVPFVLSFDNLTYNVSVRPKLDFRNLFPRRRTEDPEIAQTARPKTKTLLNNISGETRDGEIMAVLGASGSGKSTLIDALANRIAKGSLKGTVKLNGETLQSRMLKVISAYVMQDDLLFPMLTVEETLMFAAEFRLPRSLPKSKKKLRVQALIDQLGIRNAAKTIIGDEGHRGISGGERRRVSIGIDIIHDPILLFLDEPTSGLDSTSAFMVVKVLKRIAQSGSIVIMSIHQPSHRVLGLLDRLIFLSRGHTVYSGSPASLPRFFTEFGSPIPENENRTEFALDLIRELEGSAGGTRGLIEFNKKWQEMKKQSNRQPPLTPPSSPYPNLTLKEAIAASISRGKLVSGGESVAHGGATTNTTTLAVPAFANPMWIEIKTLSKRSMLNSRRQPELFGIRIASVVITGFILATVFWRLDNSPKGVQERLGFFAFAMSTMFYTCADALPVFLQERYIFMRETAYNAYRRSSYVLSHAIVSFPSLIFLSVAFAATTYWAVGLDGGLTGLLFYCLIILASFWSGSSFVTFLSGVVPSVMLGYTIVVAILAYFLLFSGFFINRNRIPDYWIWFHYMSLVKYPYEAVLQNEFSDATKCFVRGVQIFDNTPLGELPEVMKLKLLGTVSKSLGVTISSTTCLTTGSDILRQQGVVQLSKWNCLFITVAFGFFFRILFYFTLLLGSKNKRR
notes: full-length half-size transporter, N-terminal tag (CBP, His detected) kept, expressed in Pichia pastoris X33, purified in Fos-Choline-14, 86 kDa with tag, homodimer
For the protein B1, under setting [1], the Km turned out to be 1800 ± 100 µM and the Vmax came out at 0.0188 µmol/min/mg.

B2: AtABCG1 (Arabidopsis thaliana; E259Q/H291A) (protein)
chain: MARIVAANDDDSMELNTISSIHDSTLGQLLKNVSDVRKMAIGDETPVHESLNQDYNDGYMRTVPFVLSFDNLTYNVSVRPKLDFRNLFPRRRTEDPEIAQTARPKTKTLLNNISGETRDGEIMAVLGASGSGKSTLIDALANRIAKGSLKGTVKLNGETLQSRMLKVISAYVMQDDLLFPMLTVEETLMFAAEFRLPRSLPKSKKKLRVQALIDQLGIRNAAKTIIGDEGHRGISGGERRRVSIGIDIIHDPILLFLDQPTSGLDSTSAFMVVKVLKRIAQSGSIVIMSIAQPSHRVLGLLDRLIFLSRGHTVYSGSPASLPRFFTEFGSPIPENENRTEFALDLIRELEGSAGGTRGLIEFNKKWQEMKKQSNRQPPLTPPSSPYPNLTLKEAIAASISRGKLVSGGESVAHGGATTNTTTLAVPAFANPMWIEIKTLSKRSMLNSRRQPELFGIRIASVVITGFILATVFWRLDNSPKGVQERLGFFAFAMSTMFYTCADALPVFLQERYIFMRETAYNAYRRSSYVLSHAIVSFPSLIFLSVAFAATTYWAVGLDGGLTGLLFYCLIILASFWSGSSFVTFLSGVVPSVMLGYTIVVAILAYFLLFSGFFINRNRIPDYWIWFHYMSLVKYPYEAVLQNEFSDATKCFVRGVQIFDNTPLGELPEVMKLKLLGTVSKSLGVTISSTTCLTTGSDILRQQGVVQLSKWNCLFITVAFGFFFRILFYFTLLLGSKNKRR
notes: as for B1
As to B2, under setting [2], the Michaelis-Menten constant (Km) amounted to 700 ± 400 µM and the Vmax is 0.0017 µmol/min/mg.
